Paper PMC9482650, “Quantitative fragmentomics allow affinity mapping of interactomes” (Nature Communications, 2022)

Columns and labels:
Experiment in all cases: holdup assay
Parameters in all cases: key: below the threshold = too weak to quantify, mostly under pKd 3.1 to 4
Conditions in all cases: plain residues with an end cap or a label only (N-terminal biotin on a linker: ado-ado)
GRIP1_4, Q9Y3R0 = target: T1, GRIP1_4, Q9Y3R0
T1 sequence (Q9Y3R0 467-571, limits assumed, looked up): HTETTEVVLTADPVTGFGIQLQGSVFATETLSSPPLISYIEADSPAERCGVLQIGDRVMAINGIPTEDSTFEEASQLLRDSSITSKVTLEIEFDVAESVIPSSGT

GRIP1_7, Q9Y3R0 = target: T2, GRIP1_7, Q9Y3R0
T2 sequence (Q9Y3R0 999-1096, limits assumed, looked up): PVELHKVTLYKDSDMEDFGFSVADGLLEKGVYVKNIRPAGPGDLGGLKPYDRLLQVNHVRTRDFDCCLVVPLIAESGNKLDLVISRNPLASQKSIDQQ

LNX1_2, Q8TBB1 = target: LNX1_2, Q8TBB1
SNTG2, Q9NY99 = target: T3, SNTG2, Q9NY99
T3 sequence (Q9NY99 68-166, limits assumed, looked up): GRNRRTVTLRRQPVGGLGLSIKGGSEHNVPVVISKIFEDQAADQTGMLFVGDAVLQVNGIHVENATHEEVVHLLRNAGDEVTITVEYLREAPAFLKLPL

FRMPD2_3, Q68DX3 = target: FRMPD2_3, Q68DX3
Inadl_6, Q8NI35 = target: Inadl_6, Q8NI35
PDZD2_2, O15018 = target: T4, PDZD2_2, O15018
T4 sequence (O15018 329-429, limits assumed, looked up): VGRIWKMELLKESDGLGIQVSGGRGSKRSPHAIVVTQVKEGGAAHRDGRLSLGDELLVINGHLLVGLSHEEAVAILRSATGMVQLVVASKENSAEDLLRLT

RADIL, Q96JH8 = target: T5, RADIL, Q96JH8
T5 sequence (Q96JH8 971-1071, limits assumed, looked up): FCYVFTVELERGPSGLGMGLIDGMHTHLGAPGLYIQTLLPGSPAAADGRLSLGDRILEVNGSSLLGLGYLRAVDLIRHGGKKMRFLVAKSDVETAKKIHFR

DLG1_3, Q12959 = target: DLG1_3, Q12959
HTRA2, O43464 = target: HTRA2, O43464
LNX1_3, Q8TBB1 = target: LNX1_3, Q8TBB1
SCRIB_2, Q14160 = target: SCRIB_2, Q14160
NHERF3_4, Q5T2W1 = target: T6, NHERF3_4, Q5T2W1
T6 sequence (Q5T2W1 373-468, limits assumed, looked up): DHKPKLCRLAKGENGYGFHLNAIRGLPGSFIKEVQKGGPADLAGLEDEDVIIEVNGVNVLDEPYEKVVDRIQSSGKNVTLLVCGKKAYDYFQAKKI

MPP7, Q5T2T1 = target: T7, MPP7, Q5T2T1
T7 sequence (Q5T2T1 134-230, limits assumed, looked up): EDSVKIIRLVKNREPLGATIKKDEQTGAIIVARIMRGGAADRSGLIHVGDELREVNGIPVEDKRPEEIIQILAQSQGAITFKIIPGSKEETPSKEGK

AHNAK1, Q09666 = target: AHNAK1, Q09666
APBA1_1, Q02410 = target: T8, APBA1_1, Q02410
T8 sequence (Q02410 651-752, limits assumed, looked up): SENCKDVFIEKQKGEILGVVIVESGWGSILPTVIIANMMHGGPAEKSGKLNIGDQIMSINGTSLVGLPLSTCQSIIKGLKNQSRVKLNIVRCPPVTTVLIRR

SNX27, Q96L92 = target: SNX27, Q96L92
APBA1_2, Q02410 = target: T9, APBA1_2, Q02410
T9 sequence (Q02410 742-832, limits assumed, looked up): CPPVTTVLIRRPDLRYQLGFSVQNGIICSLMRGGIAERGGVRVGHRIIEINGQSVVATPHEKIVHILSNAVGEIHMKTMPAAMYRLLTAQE

DLG3_3, Q92796 = target: T10, DLG3_3, Q92796
T10 sequence (Q92796 374-475, limits assumed, looked up): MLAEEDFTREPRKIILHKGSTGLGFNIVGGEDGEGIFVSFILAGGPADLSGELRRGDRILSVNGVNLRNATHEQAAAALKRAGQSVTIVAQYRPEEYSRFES

DFNB31_2, Q9P202 = target: T11, DFNB31_2, Q9P202
T11 sequence (Q9P202 274-371, limits assumed, looked up): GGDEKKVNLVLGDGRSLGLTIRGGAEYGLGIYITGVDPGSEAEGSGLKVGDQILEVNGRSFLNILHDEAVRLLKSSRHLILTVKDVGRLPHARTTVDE

Inadl_5, Q8NI35 = target: Inadl_5, Q8NI35
TJP1_2, Q07157 = target: TJP1_2, Q07157
Inadl_3, Q8NI35 = target: Inadl_3, Q8NI35
DLG1_2, Q12959 = target: DLG1_2, Q12959
Inadl_2, Q8NI35 = target: Inadl_2, Q8NI35
TJP1_3, Q07157 = target: TJP1_3, Q07157
MAGI3_2, Q5TCQ9 = target: MAGI3_2, Q5TCQ9
Sequence of MAGI3_2, Q5TCQ9 (Q5TCQ9 398-503): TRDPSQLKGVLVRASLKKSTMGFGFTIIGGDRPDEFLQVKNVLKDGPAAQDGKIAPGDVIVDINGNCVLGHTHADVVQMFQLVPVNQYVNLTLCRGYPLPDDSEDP

Sequence of TJP1_2, Q07157 (Q07157 181-274): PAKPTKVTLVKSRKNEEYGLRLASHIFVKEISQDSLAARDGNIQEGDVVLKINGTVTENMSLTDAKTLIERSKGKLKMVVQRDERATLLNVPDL
Sequence of DLG1_2, Q12959 (Q12959 314-412): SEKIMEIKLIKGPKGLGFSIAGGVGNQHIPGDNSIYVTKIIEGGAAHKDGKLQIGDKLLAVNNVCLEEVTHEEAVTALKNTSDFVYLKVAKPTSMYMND
Sequence of HTRA2, O43464 (O43464 355-458): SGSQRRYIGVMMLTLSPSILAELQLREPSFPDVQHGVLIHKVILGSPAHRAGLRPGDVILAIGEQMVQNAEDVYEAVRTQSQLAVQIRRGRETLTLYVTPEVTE
Sequence of Inadl_6, Q8NI35 (Q8NI35 1058-1167): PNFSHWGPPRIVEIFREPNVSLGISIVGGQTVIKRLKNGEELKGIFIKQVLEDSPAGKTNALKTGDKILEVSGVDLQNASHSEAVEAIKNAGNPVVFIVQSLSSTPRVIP
Sequence of DLG1_3, Q12959 (Q12959 457-571): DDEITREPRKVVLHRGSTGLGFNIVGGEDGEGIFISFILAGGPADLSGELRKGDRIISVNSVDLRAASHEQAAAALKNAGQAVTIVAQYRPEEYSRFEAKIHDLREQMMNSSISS
Sequence of LNX1_2, Q8TBB1 (Q8TBB1 371-470): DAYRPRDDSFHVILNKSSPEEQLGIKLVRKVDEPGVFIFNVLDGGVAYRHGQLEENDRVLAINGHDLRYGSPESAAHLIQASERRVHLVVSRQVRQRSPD
Sequence of SCRIB_2, Q14160 (Q14160 857-960): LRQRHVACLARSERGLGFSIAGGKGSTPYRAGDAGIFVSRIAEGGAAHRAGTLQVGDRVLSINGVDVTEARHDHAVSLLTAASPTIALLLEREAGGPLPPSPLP
Sequence of Inadl_2, Q8NI35 (Q8NI35 238-335): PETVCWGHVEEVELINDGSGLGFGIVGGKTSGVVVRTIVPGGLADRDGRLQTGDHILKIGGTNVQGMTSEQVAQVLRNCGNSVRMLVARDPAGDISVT
Sequence of Inadl_5, Q8NI35 (Q8NI35 673-780): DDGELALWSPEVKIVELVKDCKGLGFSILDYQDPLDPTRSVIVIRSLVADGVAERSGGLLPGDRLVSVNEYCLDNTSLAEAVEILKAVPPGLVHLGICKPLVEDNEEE
Sequence of AHNAK1, Q09666 (Q09666 4-100): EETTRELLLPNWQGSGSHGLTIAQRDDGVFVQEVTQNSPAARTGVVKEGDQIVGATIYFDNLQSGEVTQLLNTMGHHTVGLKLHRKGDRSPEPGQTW
Sequence of FRMPD2_3, Q68DX3 (Q68DX3 1073-1166): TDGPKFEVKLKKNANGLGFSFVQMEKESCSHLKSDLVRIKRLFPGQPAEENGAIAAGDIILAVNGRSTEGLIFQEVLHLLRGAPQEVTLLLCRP
Sequence of Inadl_3, Q8NI35 (Q8NI35 359-469): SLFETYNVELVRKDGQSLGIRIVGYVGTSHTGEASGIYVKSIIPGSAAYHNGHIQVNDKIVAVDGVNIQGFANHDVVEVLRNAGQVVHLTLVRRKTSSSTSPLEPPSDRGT
Sequence of LNX1_3, Q8TBB1 (Q8TBB1 500-596): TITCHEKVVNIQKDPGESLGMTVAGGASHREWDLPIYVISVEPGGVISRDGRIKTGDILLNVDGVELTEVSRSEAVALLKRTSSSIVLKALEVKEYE
Sequence of TJP1_3, Q07157 (Q07157 416-512): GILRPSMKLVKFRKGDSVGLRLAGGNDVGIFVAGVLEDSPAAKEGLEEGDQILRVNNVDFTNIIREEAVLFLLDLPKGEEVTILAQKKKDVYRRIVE

DSATVRTYSC [PPFIA1, Q13136]
pKd (GRIP1_4, Q9Y3R0): below the threshold
pKd (GRIP1_7, Q9Y3R0): below the threshold
pKd (LNX1_2, Q8TBB1): 4.83
pKd (SNTG2, Q9NY99): below the threshold
pKd (FRMPD2_3, Q68DX3): below the threshold
pKd (Inadl_6, Q8NI35): below the threshold
pKd (PDZD2_2, O15018): 3.7
pKd (RADIL, Q96JH8): below the threshold
pKd (DLG1_3, Q12959): below the threshold
pKd (HTRA2, O43464): 3.66
pKd (LNX1_3, Q8TBB1): below the threshold
pKd (SCRIB_2, Q14160): below the threshold
pKd (NHERF3_4, Q5T2W1): below the threshold
pKd (MPP7, Q5T2T1): 3.92
pKd (AHNAK1, Q09666): below the threshold
pKd (APBA1_1, Q02410): below the threshold
pKd (SNX27, Q96L92): below the threshold
pKd (APBA1_2, Q02410): below the threshold
pKd (DLG3_3, Q92796): below the threshold
pKd (DFNB31_2, Q9P202): below the threshold
pKd (Inadl_5, Q8NI35): below the threshold
pKd (TJP1_2, Q07157): 3.48
pKd (Inadl_3, Q8NI35): below the threshold
pKd (DLG1_2, Q12959): below the threshold
pKd (Inadl_2, Q8NI35): below the threshold
pKd (TJP1_3, Q07157): below the threshold
pKd (MAGI3_2, Q5TCQ9): below the threshold

PASAKGPLGV [CLDN19, Q8N6F1]
pKd (GRIP1_4, Q9Y3R0): below the threshold
pKd (GRIP1_7, Q9Y3R0): below the threshold
pKd (LNX1_2, Q8TBB1): below the threshold
pKd (SNTG2, Q9NY99): below the threshold
pKd (FRMPD2_3, Q68DX3): below the threshold
pKd (Inadl_6, Q8NI35): below the threshold
pKd (PDZD2_2, O15018): below the threshold
pKd (RADIL, Q96JH8): below the threshold
pKd (DLG1_3, Q12959): below the threshold
pKd (HTRA2, O43464): below the threshold
pKd (LNX1_3, Q8TBB1): below the threshold
pKd (SCRIB_2, Q14160): below the threshold
pKd (NHERF3_4, Q5T2W1): below the threshold
pKd (MPP7, Q5T2T1): below the threshold
pKd (AHNAK1, Q09666): below the threshold
pKd (APBA1_1, Q02410): below the threshold
pKd (SNX27, Q96L92): below the threshold
pKd (APBA1_2, Q02410): below the threshold
pKd (DLG3_3, Q92796): below the threshold
pKd (DFNB31_2, Q9P202): below the threshold
pKd (Inadl_5, Q8NI35): below the threshold
pKd (TJP1_2, Q07157): below the threshold
pKd (Inadl_3, Q8NI35): below the threshold
pKd (DLG1_2, Q12959): below the threshold
pKd (Inadl_2, Q8NI35): below the threshold
pKd (TJP1_3, Q07157): below the threshold
pKd (MAGI3_2, Q5TCQ9): below the threshold

QFTLRHWLKV [SLC6A3, Q01959]
pKd (GRIP1_4, Q9Y3R0): below the threshold
pKd (GRIP1_7, Q9Y3R0): below the threshold
pKd (LNX1_2, Q8TBB1): 3.84
pKd (SNTG2, Q9NY99): below the threshold
pKd (FRMPD2_3, Q68DX3): below the threshold
pKd (Inadl_6, Q8NI35): below the threshold
pKd (PDZD2_2, O15018): below the threshold
pKd (RADIL, Q96JH8): 4.42
pKd (DLG1_3, Q12959): below the threshold
pKd (HTRA2, O43464): 4.06
pKd (LNX1_3, Q8TBB1): 3.83
pKd (SCRIB_2, Q14160): below the threshold
pKd (NHERF3_4, Q5T2W1): 3.74
pKd (MPP7, Q5T2T1): below the threshold
pKd (AHNAK1, Q09666): below the threshold
pKd (APBA1_1, Q02410): below the threshold
pKd (SNX27, Q96L92): 3.76
pKd (APBA1_2, Q02410): below the threshold
pKd (DLG3_3, Q92796): below the threshold
pKd (DFNB31_2, Q9P202): below the threshold
pKd (Inadl_5, Q8NI35): 3.62
pKd (TJP1_2, Q07157): 4.19
pKd (Inadl_3, Q8NI35): below the threshold
pKd (DLG1_2, Q12959): below the threshold
pKd (Inadl_2, Q8NI35): below the threshold
pKd (TJP1_3, Q07157): below the threshold
pKd (MAGI3_2, Q5TCQ9): below the threshold

PAPGQHTTQI [STK16, O75716]
pKd (GRIP1_4, Q9Y3R0): below the threshold
pKd (GRIP1_7, Q9Y3R0): below the threshold
pKd (LNX1_2, Q8TBB1): below the threshold
pKd (SNTG2, Q9NY99): below the threshold
pKd (FRMPD2_3, Q68DX3): below the threshold
pKd (Inadl_6, Q8NI35): below the threshold
pKd (PDZD2_2, O15018): 3.91
pKd (RADIL, Q96JH8): 3.75
pKd (DLG1_3, Q12959): 3.71
pKd (HTRA2, O43464): below the threshold
pKd (LNX1_3, Q8TBB1): below the threshold
pKd (SCRIB_2, Q14160): below the threshold
pKd (NHERF3_4, Q5T2W1): below the threshold
pKd (MPP7, Q5T2T1): below the threshold
pKd (AHNAK1, Q09666): below the threshold
pKd (APBA1_1, Q02410): below the threshold
pKd (SNX27, Q96L92): 4.27
pKd (APBA1_2, Q02410): below the threshold
pKd (DLG3_3, Q92796): below the threshold
pKd (DFNB31_2, Q9P202): below the threshold
pKd (Inadl_5, Q8NI35): below the threshold
pKd (TJP1_2, Q07157): below the threshold
pKd (Inadl_3, Q8NI35): below the threshold
pKd (DLG1_2, Q12959): 3.73
pKd (Inadl_2, Q8NI35): below the threshold
pKd (TJP1_3, Q07157): below the threshold
pKd (MAGI3_2, Q5TCQ9): below the threshold

RELVMRVTTV [MARCHF4, Q9P2E8]
pKd (GRIP1_4, Q9Y3R0): below the threshold
pKd (GRIP1_7, Q9Y3R0): below the threshold
pKd (LNX1_2, Q8TBB1): 4.58
pKd (SNTG2, Q9NY99): 4.64
pKd (FRMPD2_3, Q68DX3): below the threshold
pKd (Inadl_6, Q8NI35): 3.95
pKd (PDZD2_2, O15018): 4.46
pKd (RADIL, Q96JH8): 4.74
pKd (DLG1_3, Q12959): 5.12
pKd (HTRA2, O43464): 3.83
pKd (LNX1_3, Q8TBB1): below the threshold
pKd (SCRIB_2, Q14160): 4.28
pKd (NHERF3_4, Q5T2W1): 3.58
pKd (MPP7, Q5T2T1): below the threshold
pKd (AHNAK1, Q09666): below the threshold
pKd (APBA1_1, Q02410): below the threshold
pKd (SNX27, Q96L92): 5.48
pKd (APBA1_2, Q02410): 3.65
pKd (DLG3_3, Q92796): 4.63
pKd (DFNB31_2, Q9P202): below the threshold
pKd (Inadl_5, Q8NI35): below the threshold
pKd (TJP1_2, Q07157): below the threshold
pKd (Inadl_3, Q8NI35): 4.03
pKd (DLG1_2, Q12959): 5.41
pKd (Inadl_2, Q8NI35): below the threshold
pKd (TJP1_3, Q07157): below the threshold
pKd (MAGI3_2, Q5TCQ9): 5.07
